Article PMC6534634, “Understanding xylose isomerase from Burkholderia cenocepacia: insights into structure and functionality for ethanol production” (AMB Express, 2019)

T1: XylABc (XylA, xylose isomerase from Burkholderia cenocepacia) (Burkholderia cenocepacia, UniProt B4ENA5)
T1 construct: full-length, synthetic gene in pTrcHis-B, His6 fusion (tag apparently kept), E. coli TOP10, Ni resin + Superdex 200; homotetramer ca. 208 kDa
T1 sequence (B4ENA5 1-440): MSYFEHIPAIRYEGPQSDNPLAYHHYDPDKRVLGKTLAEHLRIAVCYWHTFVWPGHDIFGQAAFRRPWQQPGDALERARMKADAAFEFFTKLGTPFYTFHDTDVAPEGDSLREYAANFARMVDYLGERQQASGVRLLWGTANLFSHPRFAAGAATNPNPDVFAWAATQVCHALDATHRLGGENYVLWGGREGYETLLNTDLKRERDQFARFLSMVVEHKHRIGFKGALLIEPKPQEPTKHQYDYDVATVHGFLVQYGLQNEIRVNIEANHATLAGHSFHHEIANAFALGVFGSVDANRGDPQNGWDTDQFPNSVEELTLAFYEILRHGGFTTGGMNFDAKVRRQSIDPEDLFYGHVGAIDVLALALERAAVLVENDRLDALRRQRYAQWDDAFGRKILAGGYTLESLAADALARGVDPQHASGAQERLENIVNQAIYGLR

B1: Xylose isomerase from Burkholderia cenocepacia (His6-XylA fusion protein) (enzyme, Burkholderia cenocepacia J2315, UniProt B4ENA5 1-440, looked up)
chain: T1 sequence (B4ENA5 1-440)
notes: Xylose isomerase XylA of Burkholderia cenocepacia J2315, full-length gene made as synthetic DNA, cloned HindIII/BglII into pTrcHis-B; The fusion has a printed theoretical mass of 53,598.67 Da; also called XylABc; XI; source: E. coli TOP10, purified (Ni2+ resin, Superdex 200)

Columns and labels:
[1] = target: T1, XylABc (XylA, xylose isomerase from Burkholderia cenocepacia); assay: sorbitol dehydrogenase-coupled NADH oxidation, […] nm; type: biochemical
[2] = target: the molecule itself; assay: native gel or EMSA; non-denaturing 4-20% gradient PAGE of the pooled Superdex 200 peak of His6-XylA, SDS-free sample and running buffers, standards 10-250 kDa; band identified by LC-MS/MS; tetramer
[3] = target: the molecule itself; assay: SDS-PAGE (SDS-resistant oligomer); SDS-PAGE (5% stacking, 12% resolving) after size exclusion; loading dye with 8 M urea, 4% SDS, 100 mM beta-mercaptoethanol; bands identified by LC-MS/MS; dimer beside monomer

Molecule	IC50 [1]	stoichiometry N [2]	stoichiometry N [3]
OC[C@@H](O)[C@H](O)[C@@H](O)CO [xylitol]	3.75 mM		
B1		4	2
